Assay results published in patent publication US20200277397A1 (Genmab, published 2020).
Like-named read-outs stand apart in the source and are kept apart here. Each block holds one binder with its values, some of them ahead of it.

Experiments:
full length human 5T4 [1] = target: T1, full length human 5T4 (human, UniProt Q13641 32-420); test: flow cytometry, HEK-293 cells transfected with human 5T4 (left panel), PE anti-human IgG F(ab')2, MFI PE
T1 construct: Uniprot Q13641; Used here also for endogenous 5T4 on the human tumour cell lines
T1 sequence: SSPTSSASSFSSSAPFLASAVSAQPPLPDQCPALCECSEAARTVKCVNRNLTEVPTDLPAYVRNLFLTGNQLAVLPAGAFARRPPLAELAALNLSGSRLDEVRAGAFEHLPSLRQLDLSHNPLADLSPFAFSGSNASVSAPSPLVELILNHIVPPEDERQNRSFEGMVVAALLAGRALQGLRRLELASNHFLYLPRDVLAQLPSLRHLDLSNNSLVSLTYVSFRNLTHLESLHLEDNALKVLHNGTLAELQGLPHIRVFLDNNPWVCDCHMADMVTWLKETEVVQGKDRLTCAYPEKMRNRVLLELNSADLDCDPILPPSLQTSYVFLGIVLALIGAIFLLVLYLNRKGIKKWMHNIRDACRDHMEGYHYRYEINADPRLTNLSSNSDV

[2] = target: T2, full length cynomolgus monkey 5T4 (cynomolgus monkey, UniProt Q4R8Y9 35-420); test: flow cytometry, HEK-293 cells transfected with cynomolgus monkey 5T4 (right panel), PE anti-human IgG F(ab')2, MFI PE
T2 construct: Uniprot Q4R8Y9; also called cynomolgus monkey 5T4 on HEK-293 cells
T2 sequence: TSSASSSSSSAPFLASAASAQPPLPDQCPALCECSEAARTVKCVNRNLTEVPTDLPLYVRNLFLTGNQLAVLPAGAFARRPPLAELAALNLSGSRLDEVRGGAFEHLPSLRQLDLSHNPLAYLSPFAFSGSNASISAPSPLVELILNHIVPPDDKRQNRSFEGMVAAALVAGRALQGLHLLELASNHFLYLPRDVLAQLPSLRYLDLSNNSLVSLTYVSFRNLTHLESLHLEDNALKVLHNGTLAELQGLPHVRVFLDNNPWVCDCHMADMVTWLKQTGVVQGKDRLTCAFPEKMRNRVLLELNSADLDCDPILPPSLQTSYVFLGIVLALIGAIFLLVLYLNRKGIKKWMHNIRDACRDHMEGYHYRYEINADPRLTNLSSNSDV

[3] = target: T2, full length cynomolgus monkey 5T4; test: as above; remark: listed apart in the source
full length human 5T4 [4] = target: T1, full length human 5T4; test: flow cytometry, HEK-293 cells transfected with human 5T4 (left panel), PE anti-human IgG F(ab')2, MFI PE; remark: listed apart in the source
[5] = target: T2, full length cynomolgus monkey 5T4; test: flow cytometry, HEK-293 cells transfected with cynomolgus monkey 5T4 (right panel), PE anti-human IgG F(ab')2, MFI PE; remark: listed apart in the source
[6] = target: T2, full length cynomolgus monkey 5T4; test: as above; remark: listed apart in the source
full length human 5T4 [7] = target: T1, full length human 5T4; test: flow cytometry, HeLa cells, PE anti-human IgG F(ab')2, MFI PE

B1: bsIgG1-huCD3-H101G-FEALx5T4-076-FEAR (bispecific antibody)
heavy 1: not shown
VL: not shown
heavy 2: QVQLVQSGAEVKKPGASVKVSCKASGYTFTSYGISWVRQAPGQGLEWMGWISAYNGNTNYAQKLQGRVTMTTDTSTRTAYMELRSLRSDDTAVYYCARDPGYFDWLYGDYWGQGTLVTVSSASTKGPSVFPLAPSSKSTSGGTAALGCLVKDYFPEPVTVSWNSGALTSGVHTFPAVLQSSGLYSLSSVVTVPSSSLGTQTYICNVNHKPSNTKVDKRVEPKSCDKTHTCPPCPAPEFEGGPSVFLFPPKPKDTLMISRTPEVTCVVVAVSHEDPEVKFNWYVDGVEVHNAKTKPREEQYNSTYRVVSVLTVLHQDWLNGKEYKCKVSNKALPAPIEKTISKAKGQPREPQVYTLPPSREEMTKNQVSLTCLVKGFYPSDIAVEWESNGQPENNYKTTPPVLDSDGSFFLYSRLTVDKSRWQQGNVFSCSVMHEALHNHYTQKSLSLSPGK
light: not shown
- binding result (full length human 5T4 [1]): binds
- EC50 (read off the curve) [2]: ~0.4 µg/mL

B4: bsIgG1-huCD3-H101G-FEALx5T4-A1-FEAR (bispecific antibody)
heavy 1: not shown
VL 1: not shown
heavy 2: QIQLVQSGPELKKPGETVKISCKASGYTFTNFGMNWVKQGPGEGLKWMGWINTNTGEPRYAEEFKGRFAFSLETTASTAYLQINNLKNEDTATYFCARDWDGAYFFDYWGQGTTLTVSSASTKGPSVFPLAPSSKSTSGGTAALGCLVKDYFPEPVTVSWNSGALTSGVHTFPAVLQSSGLYSLSSVVTVPSSSLGTQTYICNVNHKPSNTKVDKRVEPKSCDKTHTCPPCPAPEFEGGPSVFLFPPKPKDTLMISRTPEVTCVVVAVSHEDPEVKFNWYVDGVEVHNAKTKPREEQYNSTYRVVSVLTVLHQDWLNGKEYKCKVSNKALPAPIEKTISKAKGQPREPQVYTLPPSREEMTKNQVSLTCLVKGFYPSDIAVEWESNGQPENNYKTTPPVLDSDGSFFLYSRLTVDKSRWQQGNVFSCSVMHEALHNHYTQKSLSLSPGK
VL 2: SIVMTQTPKFLLVSAGDRVTITCKASQSVSNDVAWYQQKPGQSPKLLINFATNRYTGVPNRFTGSGYGTDFTFTISTVQAEDLALYFCQQDYSSPWTFGGGTKLEIK
- binding result [6]: binds
- binding result (full length human 5T4 [7]): binds

Further lines, results first:

- EC50 (read off the curve) [3]: ~0.1 µg/mL
B2: bsIgG1-huCD3-H101G-FEALx5T4-127-FEAR (bispecific antibody)
heavy 1: not shown
VL: not shown
heavy 2: EVQLLESRGGLVQPGGSLRLSCAASGFTFSSYAMSWVRQAPGKGLEWVSTISGSGGSTYYADSVKGRFTISRDNSKKTLYLQMNSLRAEDTAVYYCAKDWGSGSYPAEYFQHWGQGTLVTVSSASTKGPSVFPLAPSSKSTSGGTAALGCLVKDYFPEPVTVSWNSGALTSGVHTFPAVLQSSGLYSLSSVVTVPSSSLGTQTYICNVNHKPSNTKVDKRVEPKSCDKTHTCPPCPAPEFEGGPSVFLFPPKPKDTLMISRTPEVTCVVVAVSHEDPEVKFNWYVDGVEVHNAKTKPREEQYNSTYRVVSVLTVLHQDWLNGKEYKCKVSNKALPAPIEKTISKAKGQPREPQVYTLPPSREEMTKNQVSLTCLVKGFYPSDIAVEWESNGQPENNYKTTPPVLDSDGSFFLYSRLTVDKSRWQQGNVFSCSVMHEALHNHYTQKSLSLSPGK
light: not shown

- EC50 (read off the curve) (full length human 5T4 [4]): ~0.5 µg/mL
- EC50 (read off the curve) [5]: ~0.4 µg/mL
B3: bsIgG1-huCD3-H101G-FEALx5T4-085-FEAR (bispecific antibody)
heavy 1: not shown
VL: not shown
heavy 2: EVQLLESGGGLVQPGGSLRLSCAASGFTFSSYAMSWVRQAPGKGLEWVSAISGSGGSTYNADSVKGRFTIFRDNSKNTLYLHMNSLRAEDTAVYYCARDPGYNNVEYLDHWGQGTLVTVSSASTKGPSVFPLAPSSKSTSGGTAALGCLVKDYFPEPVTVSWNSGALTSGVHTFPAVLQSSGLYSLSSVVTVPSSSLGTQTYICNVNHKPSNTKVDKRVEPKSCDKTHTCPPCPAPEFEGGPSVFLFPPKPKDTLMISRTPEVTCVVVAVSHEDPEVKFNWYVDGVEVHNAKTKPREEQYNSTYRVVSVLTVLHQDWLNGKEYKCKVSNKALPAPIEKTISKAKGQPREPQVYTLPPSREEMTKNQVSLTCLVKGFYPSDIAVEWESNGQPENNYKTTPPVLDSDGSFFLYSRLTVDKSRWQQGNVFSCSVMHEALHNHYTQKSLSLSPGK
light: not shown
